Results: US20170290892A1, “POLYMERIC […]” (PEG BIOSCIENCES, INC., priority 2014, published 2017)

Assay: Degradation of 20K OGF-PEG ester conjugate and release of OGF in human plasma at 37 °C
Type: in vitro ADME
Conditions: incubated in human plasma at 37 °C, 0.5 to 24 hours; reversed-phase HPLC or size exclusion chromatography
Procedure: Experiments for degradation of the 20K Tyr-gly-gly-phe-met-C(O)—O-mPEG conjugate (20K OGF-C(O)—O-mPEG or 20K OGF—PEG ester) and the release of OGF were conducted in human plasma at 37 ° C. The OGF—PEG conjugate containing hydrolysable ester linkages was incubated in human plasma at 37° C. for various periods of time, ranging from 0.5 to 24 hours. An aliquot plasma sample was withdrawn and treated with acetonitrile or acetonitrile/methanol organic solvent, vortexed, centrifuged, and concentrated. The solution residue was then analyzed by reversed-phase HPLC chromatography or size exclusion chromatography to check the amount of OGF-PEG and the released amount of OGF at various time points. The plasma T1/2 for 20K OGF-C(O)—O-mPEG was about 5 hours.

In the case of “20K Tyr-Gly-Gly-Phe-Met-C(O)O-mPEG [20K OGF-C(O)—O-mPEG]”, the “plasma T1/2” value is reported as “about 5 hours”.
